First the molecules themselves.
B1: D38A S75A 6XH2: SP1 mutant D38A S75A 6XH2, SEQ ID NO:29 (protein)
chain: MHHHHHHATRTPKLVKHTLLTRFKDEITREQIDNYINAYTNLLALIPSMKSFNWGTDLGMESAELNRGYTHAFEATFESKAGLQEYLDSAALAAFAEGFLPTLSQRLVIDYFLY
modifications: Sp1 mutant variant 6Xhis inserted into position 2, D38A and S75A mutated
B2: S73A S75A 6XH2: SP1 mutant S73A S75A 6XH2, SEQ ID NO:28 (protein)
chain: B1 chain with A38D, A44D, A75S, S79A
modifications: Sp1 mutant variant 6Xhis inserted into position 2, S73A and S75A mutated
B3: Δ2-6 His2: SP1 variant Δ2-6 His2, SEQ ID NO:8 (protein)
chain: MHKLVKHTLLTRFKDEITREQIDNYINDYTNLLDLIPSMKSFNWGTDLGMESAELNRGYTHAFESTFESKSGLQEYLDSAALAAFAEGFLPTLSQRLVIDYFLY
modifications: Sp1 mutant variant His inserted into position 2 together with a deletion of amino acid 2-6
B4: HH2: SP1 N-terminus modification HH2, SEQ ID NO:4 (protein)
chain: MHHATRTPKLVKHTLLTRFKDEITREQIDNYINDYTNLLDLIPSMKSFNWGTDLGMESAELNRGYTHAFESTFESKSGLQEYLDSAALAAFAEGFLPTLSQRLVIDYFLY
modifications: Sp1 mutant variant 2X His inserted into position 2
B5: Δ2-7 Cys2: SP1 variant Δ2-7 Cys2, SEQ ID NO:9 (protein)
chain: MCLVKHTLLTRFKDEITREQIDNYINDYTNLLDLIPSMKSFNWGTDLGMESAELNRGYTHAFESTFESKSGLQEYLDSAALAAFAEGFLPTLSQRLVIDYFLY
modifications: Sp1 mutant variant Cys inserted into position 2 together with a deletion of amino acid 2-7
B6: Δ2-6 L81C: SP1 variant Δ2-6 L81C, external perimeters of the dodecamer ring, SEQ ID NO:22 (protein)
chain: B5 chain with C2K, L76C
modifications: Sp1 mutant variant amino acids 2-6 deleted and L81C mutated
B7: Δ2-6 I40C: SP1 Loop 2 modification Δ2-6 I40C, SEQ ID NO:18 (protein)
chain: B5 chain with C2K, I35C
modifications: Sp1 mutant variant amino acids 2-6 deleted and I40C mutated
B8: R23A: SP1 mutant R23A, SEQ ID NO:12 (protein)
chain: MATRTPKLVKHTLLTRFKDEITAEQIDNYINDYTNLLDLIPSMKSFNWGTDLGMESAELNRGYTHAFESTFESKSGLQEYLDSAALAAFAEGFLPTLSQRLVIDYFLY
modifications: Sp1 mutant variant R23A mutated
B9: D27A: SP1 mutant D27A, SEQ ID NO:13 (protein)
chain: B8 chain with A23R, D27A
modifications: Sp1 mutant variant D27A mutated
B10: D38A: SP1 mutant D38A, SEQ ID NO:17 (protein)
chain: B8 chain with A23R, D38A
modifications: Sp1 mutant variant D38A mutated
B11: N31A: SP1 mutant N31A, SEQ ID NO:15 (protein)
chain: B8 chain with A23R, N31A
modifications: Sp1 mutant variant N31A mutated
B12: E68A: SP1 mutant E68A, SEQ ID NO:19 (protein)
chain: B8 chain with A23R, E68A
modifications: Sp1 mutant variant E68A mutated
B13: T34A: SP1 mutant T34A, SEQ ID NO:16 (protein)
chain: B8 chain with A23R, T34A
modifications: Sp1 mutant variant T34A mutated
B14: 6H2: six histidine N-terminal tagged SP1, SEQ ID NO:7 (protein)
chain: B1 chain with A38D, A44D, A75S, A81S
B15: N31A T34A 6XH2: SP1 mutant N31A T34A 6XH2, SEQ ID NO:30 (protein)
chain: B1 chain with N37A, A38D, T40A, A44D, A75S, A81S
modifications: Sp1 mutant variant 6Xhis inserted into position 2, N31A and T34A mutated
B16: F106A 6XH2: SP1 mutant F106A 6XH2, SEQ ID NO:23 (protein)
chain: B1 chain with A38D, A44D, A75S, A81S, F112A
modifications: Sp1 mutant variant 6Xhis inserted into position 2 and F106A mutated
B17: Y108A: SP1 mutant Y108A, SEQ ID NO:24 (protein)
chain: B8 chain with A23R, Y108A
modifications: Sp1 mutant variant Y108A mutated
B18: I30A: SP1 mutant I30A, SEQ ID NO:14 (protein)
chain: B8 chain with A23R, I30A
modifications: Sp1 mutant variant I30A mutated

The values that follow come from patent US20150273076A1, “SP1 POLYPEPTIDES, MODIFIED SP1 POLYPEPTIDES AND USES THEREOF” (Fulcrum SP Ltd., priority 2006, published 2015).

Where a chain is given by its changes, count along the chain named. Numbers in names are those of the source.

One data set is described as follows: Heat stability (no precipitation after heat treatment). To be noted: 10 min at 100° C. or 30 min at 85° C.
On to B1, for which the Heat stability result is “+”. With B2, the Heat stability result is “+”. Consider B3, for which the Heat stability result is “+”. With B4, the Heat stability entry was “+”. Still for that read-out and setting: to B5 belongs “+”; to B6, “+”; to B7, “+”.

On to B8, for which the Heat stability entry is “+”. As to B9, the Heat stability result was “+”. As for B10, the Heat stability result is “+”. B11: the Heat stability result was “+”. On the same count and under the same terms, to B12 belongs “+”; to B13, “+”.

A short description of the next data set: Protein melting point by DSC. The class given is physicochemical. The conditions noted are these: protein melting point by DSC; in °C (unit assumed). Here is the method: Differential scanning calorimetry study of SP1 indicates in a Tm of 107° C. for SP1. […] Further, folding and refolding of inclusion bodies including insoluble SP1, and the heat stability of the unfolded proteins indicate that the intact monomer, as well as the oligomer, is heat resistant (FIG. 5).
Consider B14, for which the Tm amounted to 109. On to B1, for which the Tm came to 112.

Regarding B15, the Tm is 96.6. As for B16, the Tm came to 75. Still for that read-out and setting: the result for B8 reads 108.

As for B10, the Tm amounted to 113.

With B11, the Tm was found to be 110. As to B17, the Tm amounted to 68. Regarding B12, the Tm is 105.8. Still for that read-out and setting: the result for B13 reads 114. Turning to B18, the Tm is reported as 98.
